The series deals with the molecule itself. Briefly: SEC; FLAG-purified E3-5xFLAG on Superose 6 in 350 mM NaCl; peak fraction (16 ml, ~230 kDa) analysed by MudPIT.

B1: yeast PDC E3, Lpd1-5xFLAG (natural protein, S. cerevisiae, UniProt P09624 22-499, looked up)
chain: TINKSHDVVIIGGGPAGYVAAIKAAQLGFNTACVEKRGKLGGTCLNVGCIPSKALLNNSHLFHQMHTEAQKRGIDVNGDIKINVANFQKAKDDAVKQLTGGIELLFKKNKVTYYKGNGSFEDETKIRVTPVDGLEGTVKEDHILDVKNIIVATGSEVTPFPGIEIDEEKIVSSTGALSLKEIPKRLTIIGGGIIGLEMGSVYSRLGSKVTVVEFQPQIGASMDGEVAKATQKFLKKQGLDFKLSTKVISAKRNDDKNVVEIVVEDTKTNKQENLEAEVLLVAVGRRPYIAGLGAEKIGLEVDKRGRLVIDDQFNSKFPHIKVVGDVTFGPMLAHKAEEEGIAAVEMLKTGHGHVNYNNIPSVMYSHPEVAWVGKTEEQLKEAGIDYKIGKFPFAANSRAKTNQDTEGFVKILIDSKTERILGAHIIGPNAGEMIAEAGLALEYGASAEDVARVCHAHPTLSEAFKEANMAAYDKAIHC
notes: Dihydrolipoamide dehydrogenase (E3, Lpd1), S. cerevisiae BY4741; also called E3-5xFLAG; yPDC-E3
Take B1: the binding result is given as “binds”.

The values are drawn from publication PMC7769281, “The plasticity of the pyruvate dehydrogenase complex confers a labile structure that is associated with its catalytic activity” (PLoS ONE, 2020).
